This is an account of results in US20230220115A1 (BIOMOLECULAR, published 2023).

In experiment [1] the target is recombinant human Fc gamma receptor CD16a 158F (FcRγIIIa) (human, UniProt P08637 17-208).
Experiment [2] has as its target T1, recombinant human Fc gamma receptor CD16a 158V (FcRγIIIa) (human, UniProt P08637 17-208).
Experiment [3] addresses recombinant human Fc gamma receptor CD16b (FcRγIIIb) (human, UniProt O75015 17-200).
Experiment [4] deals with T2, recombinant human Fc gamma receptor CD32a 131H (human, UniProt P12318 36-218).
T2 sequence (looked up): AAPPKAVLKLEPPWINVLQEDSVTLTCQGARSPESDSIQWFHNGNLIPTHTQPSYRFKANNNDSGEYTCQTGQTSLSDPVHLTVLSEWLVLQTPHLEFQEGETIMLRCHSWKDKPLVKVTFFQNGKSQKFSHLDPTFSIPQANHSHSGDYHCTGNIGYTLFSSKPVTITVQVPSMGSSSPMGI

For experiment [5], the target named is T3, recombinant human Fc gamma receptor CD32a 131R (human, UniProt P12318 36-218).
T3 sequence (looked up): T2 sequence (looked up) with H132R

For experiment [6], the target named is T4, recombinant human Fc gamma receptor CD32b/c (human, UniProt P31994 46-217).
T4 sequence (looked up): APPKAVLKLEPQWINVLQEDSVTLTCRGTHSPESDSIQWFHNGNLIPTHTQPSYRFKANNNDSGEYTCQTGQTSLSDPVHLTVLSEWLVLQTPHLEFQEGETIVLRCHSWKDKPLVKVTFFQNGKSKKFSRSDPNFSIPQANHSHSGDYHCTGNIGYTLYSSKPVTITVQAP

For a further experiment, the target named is T5, CD20 Lipoparticles (UniProt P11836 1-297).
T5 sequence (looked up): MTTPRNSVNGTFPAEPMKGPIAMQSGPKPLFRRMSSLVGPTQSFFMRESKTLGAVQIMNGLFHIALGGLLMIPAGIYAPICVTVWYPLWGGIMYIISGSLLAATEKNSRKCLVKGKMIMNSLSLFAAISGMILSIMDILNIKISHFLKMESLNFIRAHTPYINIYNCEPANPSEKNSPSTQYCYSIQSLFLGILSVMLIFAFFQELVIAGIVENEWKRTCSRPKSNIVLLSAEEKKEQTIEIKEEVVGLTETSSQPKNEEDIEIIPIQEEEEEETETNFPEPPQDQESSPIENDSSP

For experiment [7], the target named is recombinant human Fc gamma receptor CD64 (FcRγI) (human, UniProt P12314 16-288).
Experiment [8] deals with T1, recombinant human Fc gamma receptor …. The source holds these as a separate data set.
The next experiment addresses T6, CD19 (UniProt P15391 20-291).
T6 sequence (looked up): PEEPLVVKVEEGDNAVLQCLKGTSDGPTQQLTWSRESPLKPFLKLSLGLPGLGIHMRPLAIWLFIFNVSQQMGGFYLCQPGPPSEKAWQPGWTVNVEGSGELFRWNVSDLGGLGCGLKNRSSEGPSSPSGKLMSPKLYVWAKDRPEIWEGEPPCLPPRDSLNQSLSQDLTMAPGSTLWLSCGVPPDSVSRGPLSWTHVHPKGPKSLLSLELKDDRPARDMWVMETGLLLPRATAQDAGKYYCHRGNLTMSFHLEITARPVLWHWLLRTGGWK

Substitutions are numbered along the chain they refer to. Where two headings read alike, the source gives them in different places.

recombinant human Fc gamma receptor CD16b (FcRγIIIb), sequence (O75015 17-200 limits assumed): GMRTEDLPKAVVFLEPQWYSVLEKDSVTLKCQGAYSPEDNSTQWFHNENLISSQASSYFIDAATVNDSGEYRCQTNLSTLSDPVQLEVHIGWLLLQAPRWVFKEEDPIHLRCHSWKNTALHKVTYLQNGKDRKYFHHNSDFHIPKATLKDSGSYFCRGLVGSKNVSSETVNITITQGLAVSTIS
recombinant human Fc gamma receptor CD16a 158F (FcRγIIIa), sequence (P08637 17-208 limits assumed): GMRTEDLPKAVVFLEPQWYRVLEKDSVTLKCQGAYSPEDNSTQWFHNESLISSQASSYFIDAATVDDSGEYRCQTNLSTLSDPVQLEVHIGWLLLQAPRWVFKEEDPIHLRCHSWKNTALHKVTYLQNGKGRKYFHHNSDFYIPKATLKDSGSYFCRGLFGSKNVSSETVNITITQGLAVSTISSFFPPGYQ
T1 sequence (P08637 17-208 F176V limits assumed): as the sequence (P08637 17-208 limits assumed) above, with F160V counted along it
recombinant human Fc gamma receptor CD64 (FcRγI), sequence (P12314 16-288 limits assumed): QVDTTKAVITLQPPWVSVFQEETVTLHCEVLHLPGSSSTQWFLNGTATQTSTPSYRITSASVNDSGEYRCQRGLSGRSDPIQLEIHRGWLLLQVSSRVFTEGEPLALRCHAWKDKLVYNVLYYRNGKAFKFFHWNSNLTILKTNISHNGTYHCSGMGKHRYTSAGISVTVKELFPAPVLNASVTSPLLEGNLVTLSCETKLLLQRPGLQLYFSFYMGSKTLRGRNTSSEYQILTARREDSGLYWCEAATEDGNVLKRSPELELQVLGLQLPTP

B1: Rc66SIDE (One-arm antibody) (antibody, human IgG1, kappa)
light: QIVLSQSPAILSASPGEKVTMTCRASSSVSYIHWFQQKPGSSPKPWIYATSNLASGVPVRFSGSGSGTSYSLTISRVEAEDAATYYCQQWTSNPPTFGGGTKLEIKRTVAAPSVFIFPPSDEQLKSGTASVVCLLNNFYPREAKVQWKVDNALQSGNSQESVTEQDSKDSTYSLSSTLTLSKADYEKHKVYACEVTHQGLSSPVTKSFNRGEC
heavy: QVQLQQPGAELVKPGASVKMSCKASGYTFTSYNMHWVKQTPGRGLEWIGAIYPGNGDTSYNQKFKGKATLTADKSSSTAYMQLSSLTSEDSAVYYCARSTYYGGDWYFNVWGAGTTVTVSAASTKGPSVFPLAPSSKSTSGGTAALGCLVKDYFPEPVTVSWNSGALTSGVHTFPAVLQSSGLYSLSSVVTVPSSSLGTQTYICNVNHKPSNTKVDKKAEPKSCDKTHTCPPCPAPELLGGPDVFLFPPKPKDTLMISRTPEVTCVVVDVSHEDPEVKFNWYVDGVEVHNAKTKPREEQYNSTYRVVSVLTVLHQDWLNGKEYKCKVSNKALPAPEEKTISKAKGQPREPQVYVLPPSRDELTKNQVSLLCLVKGFYPSDIAVEWESNGQPENNYLTWPPVLDSDGSFFLYSKLTVDKSRWQQGNVFSCSVMHEALHNHYTQKSLSLSPGK
chain: CPPCPAPELLGGPDVFLFPPKPKDTLMISRTPEVTCVVVDVSHEDPEVKFNWYVDGVEVHNAKTKPREEQYNSTYRVVSVLTVLHQDWLNGKEYKCKVSNKALPAPEEKTISKAKGQPREPQVYVYPPSRDELTKNQVSLTCLVKGFYPSDIAVEWESNGQPENNYKTTPPVLDSDGSFALVSKLTVDKSRWQQGNVFSCSVMHEALHNHYTQKSLSLSPGK
Usually Kd stands for the constant that tells how readily two partners part at equilibrium. As to B1, the Kd in experiment [1] is 76.8 nM; in experiment [2] it was 46.2 nM; in experiment [3], 163 nM; in [4], 255 nM; in experiment [5], 202 nM; in experiment [6] it was 253 nM. Binding with CD20 Lipoparticles was characterised by a dissociation constant (Kd) of 21.4 nM.

B2: Rc66SIDE-P16-Rc66SIDE (antibody, human IgG1, kappa)
light: B1 light
heavy: B1 heavy
chain: B1 chain
As to B2, the dissociation constant (Kd) was 2.71 nM in experiment [1]; 0.257 nM in experiment [2]; less than 0.001 nM in [3]; 0.808 nM in [4]; 1.83 nM in experiment [5]; 0.556 nM in experiment [6]. The Kd (in experiment [7]; with CD20 Lipoparticles) was less than 0.001 nM in each case.

B3: Rc66SIDE-P4-Rc66SIDE (antibody, human IgG1, kappa)
light: B1 light
heavy: B1 heavy
chain: B1 chain
On to B3, for which the Kd in [1] amounted to 3.87 nM; in experiment [2], 1.14 nM; in experiment [3] it was 1.05 nM; in [4], 2.54 nM; in experiment [5], 4.93 nM; in experiment [6], 3.17 nM. Moreover, the Kd (in experiment [7]; in the experiment with CD20 Lipoparticles) was less than 0.001 nM each time.

B4: Rc66SIDE-P28-Rc66SIDE (antibody, human IgG1, kappa)
light: B1 light
heavy: B1 heavy
chain: B1 chain
Consider B4, for which the dissociation constant (Kd) was found to be 6.62 nM in [1]; 4.98 nM in experiment [2]; 5.64 nM in experiment [3]; 5.42 nM in [4]; 8.11 nM in experiment [5]; 7.28 nM in experiment [6]. In addition, the dissociation constant (Kd) in experiment [7] was 1.14 nM; with CD20 Lipoparticles it was less than 0.001 nM.

B5: B19c66 (one-arm antibody) (antibody, human IgG1, kappa)
light: not shown
heavy: not shown
chain: B1 chain with D14S, E107I
Regarding B5, the Kd in experiment [8] was determined as 234 nM; with CD19 it was 21.8 nM.

B6: B19c66AAC9 (one-arm antibody) (antibody, human IgG1, kappa)
light: not shown
heavy: QVQLQQSGAELVRPGSSVKISCKASGYAFSSYWMNWVKQRPGQGLEWIGQIWPGDGDTNYNGKFKGKATLTADESSSTAYMQLSSLASEDSAVYFCARRETTTVGRYYYAMDYWGQGTTVTVSSASTKGPSVFPLAPSSKSTSGGTAALGCLVKDYFPEPVTVSWNSGALTSGVHTFPAVLQSSGLYSLSSVVTVPSSSLGTQTYICNVNHKPSNTKVDKKVEPKSCDKTHTCPPCPAPKRRGGPSVFLFPPKPKDTLMISRTPEVTCVVVDVSHEDPEVKFNWYVDGVEVHNAKTKPREEQYNSTYRVVSVLTVLHQDWLNGKEYKCKVSNKALPAPIEKTISKAKGQPREPQVYVLPPSRDELTKNQVSLLCLVKGFYPSDIAVEWESNGQPENNYLTWPPVLDSDGSFFLYSKLTVDKSRWQQGNVFSCSVMHEALHNHYTQKSLSLSPGK
chain: B1 chain with L9D, L10E, D14S, E107I
Regarding B6, in the experiment with CD19, the dissociation constant Kd was 21 nM.
